In general, IC50 refers to the point on the concentration scale where inhibition reaches its midpoint.

The values below come from paper PMC6037002, “Drug targeting to decrease cardiotoxicity – determination of the cytotoxic effect of GnRH-based conjugates containing doxorubicin, daunorubicin and methotrexate on human cardiomyocytes and endothelial cells” (Beilstein Journal of Organic Chemistry, 2018).

Where two headings read alike, the source gives them in different places.

Series [1] has as its system human umbilical vein endothelial cells (HUVEC). As to the kind of experiment: Impedimetric measurement (xCELLigence SP), delta slope, HUVEC. To be noted: for delta slope (DS), short-term / delta slope (DS), long-term: HUVEC, three parallels; for delta slope (DS), short-term: 0–2 h; for delta slope (DS), long-term: 0–72 h; for Cardiotoxicity, HUVEC: grade +++/++/+/0, key not given, summary of impedimetric cytotoxicity; for cytotoxic effect on HUVEC, result in words: long-term (0–72 h), 10^−8–10^−6 mol/L, impedimetry, one-way ANOVA.

Series [2] concerns primary human cardiac myocytes (HCM). To be noted: for delta slope (DS), short-term / delta slope (DS), long-term: HCM, three parallels; for delta slope (DS), short-term: 0–2 h; for delta slope (DS), long-term: 0–72 h; for Cardiotoxicity, HCM: grade +++/++/+/0, key not given, summary of impedimetric cytotoxicity; for cytotoxic effect on HCM, result in words: long-term (0–72 h), 10^−8–10^−6 mol/L (free drugs 10^−12–10^−6 mol/L), impedimetry, one-way ANOVA.

Series [3] concerns MCF-7 human breast adenocarcinoma cells. To be noted: MTT assay; cited from earlier work. The text has this: (§1) Table 1 Comparative study of cytotoxic effects and cardiotoxicity elicited by GnRH-based antitumor compounds (1–15) and reference substances (AN-152, Dox, Dau, Mtx). IC50 values show antitumor cytotoxic characteristics of the conjugates in human breast cancer (MCF-7), human colorectal adenocarcinoma (HT-29) and human acute monocytic leukemia (MM6) derived cell lines as representative tumor cells.
In general terms: Tetrazolium dyes change colour on reduction, which living cells bring about.

Series [4] has as its system human acute monocytic leukemia (MonoMac6) cells. To be noted: cited from earlier work.
Text: as §1

The subject of series [5] is HT-29 human colon adenocarcinoma cells. To be noted: MTT assay; cited from earlier work.
Text: as §1

For series [6] the following is noted: cited from earlier work. The method, then: The GnRH derivatives were prepared by solid phase peptide synthesis (SPPS) according to Fmoc/t-Bu strategy (Supporting Information File 2). Three drug molecules, doxorubicin (Dox), daunorubicin (Dau) and methotrexate (Mtx), were employed in the preparation of drug conjugates. Dox has three potential conjugation sites; i) a primary OH group at C-14 on the aglycone part, which is suitable for ester bond formation, ii) an oxo group at C-13 is available for the generation of an oxime linkage and iii) the amino group on the daunosamine sugar moiety, which can be used for amide bond formation. The d ...

With “[^4Lys(Ac)]-GnRH-III(Dau=Aoa) [conjugate 5]”, the “delta slope (DS), short-term” value in series [1] (Table S3a, 10^-6 mol/L) was 0.002; in series [1] (Table S3a, 10^-7 mol/L), 0.004; in series [1] (Table S3a, 10^-8 mol/L), -0.001; in series [2] (Table S3b, 10^-6 mol/L), -0.005; in series [2] (Table S3b, 10^-7 mol/L), -0.001; in series [2] (Table S3b, 10^-8 mol/L) it was -0.002. Moreover, the “delta slope (DS), long-term” value in series [1] (Table S3a, 10^-6 mol/L) was -0.001; in series [1] (Table S3a, 10^-7 mol/L) it was -0.001; in series [1] (Table S3a, 10^-8 mol/L), -0.001; in series [2] (Table S3b, 10^-6 mol/L), −0.003; in series [2] (Table S3b, 10^-7 mol/L) it was -0.001; in series [2] (Table S3b, 10^-8 mol/L), 0.001. The “Cardiotoxicity, HUVEC” value in series [1] came out at 0. In series [1], the “cytotoxic effect on HUVEC, result in words” value (shortened to “cytotoxic effect on HUVEC”) is reported as “completely lost the cytotoxic effect”. In addition, the half-maximal inhibitory concentration (IC50) in series [3] is 3.1 ± 1.7 µM; in series [4] it was 0.925 ± 0.07 µM; in series [5], 7.4 ± 2.6 µM. The “enzymatic stability, result in words” value in series [6] is “increased the enzymatic stability”.

As for “GnRH-III(Dau=Aoa-K(Dau=Aoa)) [conjugate 12]”, the “delta slope (DS), short-term” value in series [1] (Table S3a, 10^-6 mol/L) is -0.003; in series [1] (Table S3a, 10^-7 mol/L), 0.010; in series [1] (Table S3a, 10^-8 mol/L), 0.009; in series [2] (Table S3b, 10^-6 mol/L), -0.001; in series [2] (Table S3b, 10^-7 mol/L), -0.001; in series [2] (Table S3b, 10^-8 mol/L) it was -0.001. The “delta slope (DS), long-term” value is given as -0.001 in series [1] (Table S3a, 10^-6 mol/L); -0.001 in series [1] (Table S3a, 10^-7 mol/L); -0.001 in series [1] (Table S3a, 10^-8 mol/L); -0.002 in series [2] (Table S3b, 10^-6 mol/L); -0.001 in series [2] (Table S3b, 10^-7 mol/L); -0.001 in series [2] (Table S3b, 10^-8 mol/L). In series [1], the “Cardiotoxicity, HUVEC” value is 0. In series [1], the “cytotoxic effect on HUVEC” value was “completely lost the cytotoxic effect”. In series [2], the “Cardiotoxicity, HCM” value turned out to be 0. Also, in series [2], the “cytotoxic effect on HCM, result in words” value is “completely lost their cytotoxic effect”. In addition, the IC50 in series [3] was 3 ± 0.4 µM; in series [4], > 1 µM; in series [5] it was 5.6 ± 2 µM.

For the substance GnRH-III(Dau=Aoa) [conjugate 4], the “delta slope (DS), short-term” value was -0.003 in series [1] (Table S3a, 10^-6 mol/L); -0.003 in series [1] (Table S3a, 10^-7 mol/L); 0.001 in series [1] (Table S3a, 10^-8 mol/L); 0.001 in series [2] (Table S3b, 10^-6 mol/L); -0.001 in series [2] (Table S3b, 10^-7 mol/L); -0.002 in series [2] (Table S3b, 10^-8 mol/L). Besides, the “delta slope (DS), long-term” value in series [1] (Table S3a, 10^-6 mol/L) is -0.001; in series [1] (Table S3a, 10^-7 mol/L) it was -0.001; in series [1] (Table S3a, 10^-8 mol/L), -0.001; in series [2] (Table S3b, 10^-6 mol/L), -0.001; in series [2] (Table S3b, 10^-7 mol/L) it was -0.001; in series [2] (Table S3b, 10^-8 mol/L), -0.001. Moreover, in series [1], the “Cardiotoxicity, HUVEC” value is given as 0. Further, in series [1], the “cytotoxic effect on HUVEC” value is recorded as “completely lost the cytotoxic effect”. The “Cardiotoxicity, HCM” value in series [2] was 0. Also, the “cytotoxic effect on HCM, result in words” value in series [2] is on record as “completely lost their cytotoxic effect”. The IC50 in series [3] was 6.5 ± 1.8 µM; in series [4], > 1 µM; in series [5] it was 27.8 ± 4.2 µM.

On to “[^4N-MeSer]-GnRH-III(Dau=Aoa) [conjugate 6]”, for which the “delta slope (DS), short-term” value is 0.006 in series [1] (Table S4a, 10^-6 mol/L); 0.002 in series [1] (Table S4a, 10^-7 mol/L); 0.011 in series [1] (Table S4a, 10^-8 mol/L); 0.001 in series [2] (Table S4b, 10^-6 mol/L); -0.001 in series [2] (Table S4b, 10^-7 mol/L); -0.005 in series [2] (Table S4b, 10^-8 mol/L). Besides, the “delta slope (DS), long-term” value in series [1] (Table S4a, 10^-6 mol/L) is 0.001; in series [1] (Table S4a, 10^-7 mol/L), -0.001; in series [1] (Table S4a, 10^-8 mol/L), 0.001; in series [2] (Table S4b, 10^-6 mol/L) it was 0.001; in series [2] (Table S4b, 10^-7 mol/L), -0.002; in series [2] (Table S4b, 10^-8 mol/L), -0.002. Moreover, the “Cardiotoxicity, HUVEC” value in series [1] was determined as 0. In series [1], the “cytotoxic effect on HUVEC” value is “completely lost the cytotoxic effect”. Besides, the “Cardiotoxicity, HCM” value in series [2] turned out to be 0. The “cytotoxic effect on HCM, result in words” value in series [2] was “completely lost their cytotoxic effect”. Moreover, the 50% inhibitory concentration (IC50) is 10.6 ± 2.1 µM in series [3] and > 1 µM in series [4]. Besides, the “enzymatic stability, result in words” value in series [6] was “increased the enzymatic stability”.
